According to publication PMC8393326 (2021):

Legend:
Assay in all cases: ITC
Erbin PDZ binder = target: T1, Erbin PDZ binder
T1 chain: TGWETWV

AdV E4 ORF1 = AdV E4 ORF1 (Human adenovirus)
HTLV3 Tax = HTLV3 Tax (Human T-cell leukemia virus 3)
ERBB4 = target: T2, ERBB4 (Homo sapiens)
T2 chain: HRNTVV

HTLV1 Tax = target: T3, HTLV1 Tax (Human T-cell leukemia virus 1)
T3 chain: FRETEV

B1: PSD95-PDZ2 155-249 (protein)
chain: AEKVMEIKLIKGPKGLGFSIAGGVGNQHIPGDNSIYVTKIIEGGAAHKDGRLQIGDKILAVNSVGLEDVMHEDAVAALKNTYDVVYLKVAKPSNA
Kd (Erbin PDZ binder): 5.7 µM | Kd (AdV E4 ORF1): 11.5 µM | Kd (HTLV3 Tax): 20 µM | Kd (ERBB4): 13.9 µM | Kd (HTLV1 Tax): 1.5 µM

B2: Erbin-PDZ PDZ (protein)
chain: AKQEIRVRVEKDPELGFSISGGVGGRGNPFRPDDDGIFVTRVQPEGPASKLLQPGDKIIQANGYSFINIEHGQAVSLLKTFQNTVELIIVREVSS
Kd (Erbin PDZ binder): 0.24 µM | Kd (HTLV3 Tax): 23 µM | Kd (HTLV1 Tax): 7.8 µM

B3: PSD95-PDZ3 302-415 (protein)
chain: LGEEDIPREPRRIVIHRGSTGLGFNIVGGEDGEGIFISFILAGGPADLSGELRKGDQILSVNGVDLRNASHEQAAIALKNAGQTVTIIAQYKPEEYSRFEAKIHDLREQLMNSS
Kd (HTLV3 Tax): 43 µM | Kd (ERBB4): 41.6 µM | Kd (HTLV1 Tax): 3.8 µM
